Assay results from patent US20210261676A1 (YINNUOLAI BIOTECH, published 2021).

T1: B-cell activating factor (BAFF) receptor (human, UniProt Q96RJ3 7-71, limits assumed)
T1 construct: also called TNFRSF13C; BLyS receptor 3
T1 sequence: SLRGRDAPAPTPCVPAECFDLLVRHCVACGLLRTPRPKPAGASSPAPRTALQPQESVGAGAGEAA

B1: H90-5 anti-BAFF receptor monoclonal antibody (antibody, V domains shown)
VH: EVQLQESGPGLVKPSQTLSLTCTVSGDSITSGYWNWIRQHPGKGLEYIGYISYSGSTYYNPSLKSRVTISRDTSKNQYSLKLSSVTAADTAVYYCASPNYPFYAMDYWGQGTLVTVSS
VL: DIVLTQSPATLSLSPGERATLSCRASESVDNYGISFMNWFQQKPGQAPRLLIYAASNRATGIPARFSGSGSGTDFTLTISSLEPEDFAVYYCQQSKEVPWTFGGGTKVEIKR
notes: Humanized form of C90; also called H90-5 mAb
B2: H90-11 anti-BAFF receptor monoclonal antibody (antibody, V domains shown)
VH: B1 VH
VL: DIQMTQSPDSLAVSLGERATINCKSSQSVLYSSNNKNYLAWYQQKPGQPPKLLIYWASIRESGVPDRFSGSGSGTDFTLTISSLQPEDFATYYCQQSYSTPWTFGQGTKLEIKR
notes: same heavy chain variable region as H90-5; also called H90-11 mAb

Target: T1, B-cell activating factor (BAFF) receptor
Experiment: method not stated; column heads (Kdis, Full X^2, Full R^2) look like bio-layer interferometry output

Binder | Kd | koff | kon
B1 | 3.4 nM | 0.0034 s⁻¹ | 990000 M⁻¹ s⁻¹
B2 | 0.95 nM | 0.00082 s⁻¹ | 860000 M⁻¹ s⁻¹
